One series deals with Flag-RIG-I. Kind of series: MST. The following applies: MST: PBS with 100 mM Tris-HCl pH 8.8, 20 nM Cy5-dsRNA, 25 C, GST as negative control, pull-down: HEK293 lysate, biotinylated RNA, streptavidin beads.
The next series deals with GST-MDA5(280-1025). Kind of series: MST. The following applies: MST: PBS with 100 mM Tris-HCl pH 8.8, 20 nM Cy5-dsRNA, 25 C, GST as negative control, pull-down: HEK293 lysate, biotinylated RNA, streptavidin beads.
For another series, the system named is GST-hnRNPM (human). Kind of series: MST. The following applies: MST: PBS with 100 mM Tris-HCl pH 8.8, 20 nM Cy5-dsRNA, 25 C, GST as negative control; pull-down: HEK293 lysate, biotinylated RNA, streptavidin beads.
The target in series [1] is T1, Flag-RIG-I, purified from transfected HEK293 cells (human, UniProt O95786 1-925).
T1 construct: RIG-I, human; Flag-RIG-I plasmid; also called Flag-tagged RIG-I; recombinant RIG-I
T1 sequence (looked up): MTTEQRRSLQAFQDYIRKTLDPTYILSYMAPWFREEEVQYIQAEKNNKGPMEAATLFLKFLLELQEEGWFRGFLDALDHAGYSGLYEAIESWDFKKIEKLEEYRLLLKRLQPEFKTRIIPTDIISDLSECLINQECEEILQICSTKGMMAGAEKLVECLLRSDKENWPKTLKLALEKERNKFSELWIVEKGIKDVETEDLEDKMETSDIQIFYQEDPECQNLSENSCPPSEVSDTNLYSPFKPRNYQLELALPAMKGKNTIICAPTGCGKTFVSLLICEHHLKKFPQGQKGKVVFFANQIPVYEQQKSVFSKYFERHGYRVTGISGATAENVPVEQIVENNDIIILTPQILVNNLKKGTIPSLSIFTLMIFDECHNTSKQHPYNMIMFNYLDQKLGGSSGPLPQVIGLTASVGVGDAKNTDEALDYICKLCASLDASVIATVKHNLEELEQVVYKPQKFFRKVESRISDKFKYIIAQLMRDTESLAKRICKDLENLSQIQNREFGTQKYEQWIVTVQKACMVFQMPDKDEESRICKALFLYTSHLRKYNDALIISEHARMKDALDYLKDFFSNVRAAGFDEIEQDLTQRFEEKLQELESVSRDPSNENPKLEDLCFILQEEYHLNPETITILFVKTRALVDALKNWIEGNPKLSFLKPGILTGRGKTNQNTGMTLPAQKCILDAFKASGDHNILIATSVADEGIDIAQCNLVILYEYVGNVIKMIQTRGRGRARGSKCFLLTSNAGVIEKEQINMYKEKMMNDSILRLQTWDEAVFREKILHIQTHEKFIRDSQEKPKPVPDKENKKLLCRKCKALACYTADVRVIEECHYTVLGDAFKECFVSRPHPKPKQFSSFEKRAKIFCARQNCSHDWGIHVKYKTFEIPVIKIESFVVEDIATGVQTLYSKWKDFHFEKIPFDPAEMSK
Kind of series: pull-down; purified recombinant proteins incubated in PBS with RNase I at 4°C for 3 hours, then immunoprecipitated with anti-MDA5 and protein G beads or with anti-Flag affinity gel at 4°C for 2 hours; immunoblots. To be noted: both partners purified.

The target in series [2] is T2, recombinant MDA5 (280-1,025) (pGEX6p-1-GST-MDA5 (280-1025)) (human, UniProt Q9BYX4 280-1025).
T2 construct: MDA5, human, residues 280-1025; cloned in pGEX-6p-1; No cleavage of GST is told; the MST methods call the same preparation GST-MDA5; source: E. coli BL21, purified (GST resins, eluted with reduced glutathione)
T2 sequence (looked up): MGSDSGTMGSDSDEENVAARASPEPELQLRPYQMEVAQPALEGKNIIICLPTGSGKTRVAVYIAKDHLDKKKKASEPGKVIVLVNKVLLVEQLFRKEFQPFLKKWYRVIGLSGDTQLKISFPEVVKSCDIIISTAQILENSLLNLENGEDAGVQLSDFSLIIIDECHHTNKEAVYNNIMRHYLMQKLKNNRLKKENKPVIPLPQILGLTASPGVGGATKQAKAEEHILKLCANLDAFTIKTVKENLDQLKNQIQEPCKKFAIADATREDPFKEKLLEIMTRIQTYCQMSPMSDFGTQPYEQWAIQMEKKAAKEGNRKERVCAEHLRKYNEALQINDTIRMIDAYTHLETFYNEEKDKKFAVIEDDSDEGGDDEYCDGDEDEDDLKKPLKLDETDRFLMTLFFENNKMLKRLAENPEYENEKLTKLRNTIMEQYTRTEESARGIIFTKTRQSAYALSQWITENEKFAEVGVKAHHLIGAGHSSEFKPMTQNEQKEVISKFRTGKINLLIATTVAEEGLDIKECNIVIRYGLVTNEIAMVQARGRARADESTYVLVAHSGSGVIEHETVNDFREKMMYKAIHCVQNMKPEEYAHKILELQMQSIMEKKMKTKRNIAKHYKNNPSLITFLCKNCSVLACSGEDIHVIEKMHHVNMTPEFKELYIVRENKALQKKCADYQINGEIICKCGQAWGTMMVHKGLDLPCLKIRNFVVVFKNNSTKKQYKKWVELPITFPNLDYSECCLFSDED
Described as above. The following applies: both partners purified.

On to 25 bp dsRNA, for which the values for the Kd with Flag-RIG-I, with GST-MDA5(280-1025) and with GST-hnRNPM (human) were 69 nM, 131 nM and 22.1 nM, respectively. Moreover, the binding signal (fold decrease of affinity) with Flag-RIG-I (recombinant hnRNPM present) worked out at 10; in the series on GST-MDA5(280-1025) (recombinant hnRNPM present), 3.

B1: recombinant hnRNPM (pGEX6p-1-GST-hnRNPM) (natural protein, human, UniProt P52272 1-730, looked up)
chain: MAAGVEAAAEVAATEIKMEEESGAPGVPSGNGAPGPKGEGERPAQNEKRKEKNIKRGGNRFEPYANPTKRYRAFITNIPFDVKWQSLKDLVKEKVGEVTYVELLMDAEGKSRGCAVVEFKMEESMKKAAEVLNKHSLSGRPLKVKEDPDGEHARRAMQKVMATTGGMGMGPGGPGMITIPPSILNNPNIPNEIIHALQAGRLGSTVFVANLDYKVGWKKLKEVFSMAGVVVRADILEDKDGKSRGIGTVTFEQSIEAVQAISMFNGQLLFDRPMHVKMDERALPKGDFFPPERPQQLPHGLGGIGMGLGPGGQPIDANHLNKGIGMGNIGPAGMGMEGIGFGINKMGGMEGPFGGGMENMGRFGSGMNMGRINEILSNALKRGEIIAKQGGGGGGGSVPGIERMGPGIDRLGGAGMERMGAGLGHGMDRVGSEIERMGLVMDRMGSVERMGSGIERMGPLGLDHMASSIERMGQTMERIGSGVERMGAGMGFGLERMAAPIDRVGQTIERMGSGVERMGPAIERMGLSMERMVPAGMGAGLERMGPVMDRMATGLERMGANNLERMGLERMGANSLERMGLERMGANSLERMGPAMGPALGAGIERMGLAMGGGGGASFDRAIEMERGNFGGSFAGSFGGAGGHAPGVARKACQIFVRNLPFDFTWKMLKDKFNECGHVLYADIKMENGKSKGCGVVKFESPEVAERACRMMNGMKLSGREIDVRIDRNA
notes: hnRNPM, human; cloned in pGEX-6p-1; No cleavage of GST is told; the MST methods call the same preparation GST-hnRNPM, so the tag was probably still on the protein in the pull-down; source: E. coli BL21, purified (GST resins, eluted with reduced glutathione)
Regarding B1, the binding result in series [1] and in series [2] was “binds” throughout.

As a reminder, the Kd is the constant that tells how readily two partners part at equilibrium.

Source of the values: paper PMC6703689, “The heterogeneous nuclear ribonucleoprotein hnRNPM inhibits RNA virus-triggered innate immunity by antagonizing RNA sensing of RIG-I-like receptors” (PLoS Pathogens, 2019).
